Assay results taken from PMC3977044.
Numbering of substitutions follows the chain as printed. Read-outs that look alike come from different tables or passages of the source.

Key:
[1] = biological target: Mos1 transposase R48Q/Q100R D284A (with T216A), DNA binding and catalytically inactive mutant (Drosophila mauritiana); assay: SEC
[2] = biological target: Mos1 transposase R48Q/Q100R (with T216A), DNA binding deficient mutant (Drosophila mauritiana); assay: SEC
[3] = biological target: Mos1 transposase D284A (with T216A), catalytically inactive mutant (Drosophila mauritiana); assay: SEC
Mos1 transposase T216A [4] = biological target: T1, Mos1 transposase T216A (Drosophila mauritiana (mariner Mos1), UniProt Q7JQ07 1-345, T216A); assay: X-ray crystallography
T1 sequence: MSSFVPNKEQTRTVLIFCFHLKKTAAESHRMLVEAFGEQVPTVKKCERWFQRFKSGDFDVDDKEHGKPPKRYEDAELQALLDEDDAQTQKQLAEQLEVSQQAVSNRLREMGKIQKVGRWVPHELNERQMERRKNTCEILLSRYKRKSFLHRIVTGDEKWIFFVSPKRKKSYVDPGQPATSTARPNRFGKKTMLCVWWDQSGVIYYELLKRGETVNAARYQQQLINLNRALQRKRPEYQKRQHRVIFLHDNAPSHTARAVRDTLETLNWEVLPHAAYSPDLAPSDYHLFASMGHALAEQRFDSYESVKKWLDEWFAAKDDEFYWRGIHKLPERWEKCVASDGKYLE

Mos1 transposase T216A [5] = biological target: T1, Mos1 transposase T216A; assay: X-ray crystallography; remark: listed apart in the source
[6] = biological target: T2, Mos1 transposase R48Q/Q100R (Drosophila mauritiana (mariner Mos1), UniProt Q7JQ07 1-345, R48Q;Q100R;T216A); assay: EMSA
T2 sequence: T1 sequence with R48Q, Q100R

Q: “Mos1 transposase R48Q/Q100R D284A (with T216A), DNA binding and catalytically inactive mutant (enzyme)” was tested. Which stoichiometry N [1] did it give?
A: Its stoichiometry N is 2.

Q: With “Mos1 transposase R48Q/Q100R (with T216A), DNA binding deficient mutant (enzyme)” as the molecule, how does the stoichiometry N [2] read?
A: Its stoichiometry N is 2.

Q: How did the stoichiometry N [3] turn out when “Mos1 transposase D284A (with T216A), catalytically inactive mutant (enzyme)” was run?
A: Its stoichiometry N is 2.

B1: IRR duplex with 5-iodo-dU at T16 (dsDNA)
DNA 1: AAACGACATTTCATACTTGTACACCTGA
DNA 2: GGTGTACAAGTATGAAATGTCGTTT
modifications: 5-iodo-dU replacing T16 (NTS nucleotide 13 by structure numbering); 5' phosphate on NTS presumed
Q: Does B1 bind (Mos1 transposase T216A [4])?
A: Result: binds

B2: pre-cleaved IRR duplex (28 nt TS / 25 nt NTS) (dsDNA)
DNA 1: AAACGACATTTCATACTTGTACACCTGA
DNA 2: GGTGTACAAGTATGAAATGTCGTTT
modifications: 5' phosphate on NTS
Q: Does B2 bind (Mos1 transposase T216A [5])?
A: Result: binds

B3: 100 bp IRR plus flank NTS cleavage substrate (dsDNA)
DNA 1: ACGGGCTCCAGTCGGTGAATATAGAAACTATCAGGTGTACAAGTATGAAATGTCGTTTTTTTTAAATCAAAAAACACGTTAAATTTTGTGGAAAAAGAAA
DNA 2: TTTCTTTTTCCACAAAATTTAACGTGTTTTTTGATTTAAAAAAAACGACATTTCATACTTGTACACCTGATAGTTTCTATATTCACCGACTGGAGCCCGT
Q: Does B3 bind [6]?
A: Result: no binding
